Assay results published in ChEMBL document CHEMBL2074001, “Competition of hydrophobic peptides, cytotoxic drugs, and chemosensitizers on a common P-glycoprotein pharmacophore as revealed by its ATPase activity” (J Biol Chem, 1996).

Experiments:
[1] = test system: CC[C@H]1CN2CCc3cc(OC)c(OC)cc3[C@@H]2C[C@@H]1C[C@H]1NCCc2cc(OC)c(OC)cc21; experiment: (§1) TP_TRANSPORTER: ATP hydrolysis in reconstituted proteoliposomes; type: functional, subcellular
[2] = test system: CC(C)[C@@H]1NC(=O)[C@H](C)OC(=O)[C@@H](C(C)C)NC(=O)[C@@H](C(C)C)OC(=O)[C@H](C(C)C)NC(=O)[C@H](C)OC(=O)[C@@H](C(C)C)NC(=O)[C@@H](C(C)C)OC(=O)[C@H](C(C)C)NC(=O)[C@H](C)OC(=O)[C@@H](C(C)C)NC(=O)[C@@H](C(C)C)OC1=O; experiment: as §1; type: functional, subcellular

Substance: ATP-dependent translocase ABCB1 (Homo sapiens)
- Km [1]: 6 µM
- Km [2]: 1 µM
